Measured values reported in US20250230251A1.

Target: extracellular matrix (ECM) proteins
Experiment: ECM (Matrigel) ELISA, 1 µM antibody

| Substance | ECM score |
| --- | --- |
| high control mAb (antibody) | 24.2 |
| low control mAb (antibody) | 1.1 |
